# Measured values taken from the supplement of paper PMC12636428.
# System: Saccharomyces cerevisiae
# Experiment: transcriptional activation domain activity (GFP:mCherry ratio, weighted mean of sorted bins, harmonized to initial dataset scale) (arbitrary fluorescence ratio units); higher = stronger transcriptional activation
# Settings: beta-estradiol 1 µM; induction time 4 h
# In short: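 The activation activity of each tile is the read-weighted mean of bin median fluorescence, averaged across its barcodes and mapped linearly onto the scale of the initial dataset. Tiles were fused to an estradiol-inducible synthetic transcription factor, barcoded, and integrated at URA3 in yeast diploids carrying a GFP reporter. Induction used 1 uM beta-estradiol in SC for 4 hours at 30 °C, after which cells were sorted into 8 GFP:mCherry bins, and any tile with fewer than 50 reads was dropped.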
row,Sequence,transcriptional activation domain activity
1,ESGESEESGRARSRRKRRRREERRGEEGKRRTRAGVRRSKGRKTERASTAGTD,43100
2,ENLRTVGLGSVRDICLRNASEQAILTIIDFPLRVLAMIAQIRTGLWVRNGFAI,53000
3,KGKAAKSGWDDDEDEKKKEEGEGEGGDGGDKSGDIGAGGDGDKKDEASGNADG,27500
4,ATLNLIFTIDLLNFSFWSELPEDERFCIEYRGKRWTGYWSLVAALQRALDEGV,39000
5,NSIIPFFRFLGCIVLSGAFYFYIFFYAFLLCLFLIYFFFHGSKLGFFHFIFFP,40600
6,GEGEAKTKKRNKRSKAPVEGEAAETPAAATTEGEEAAAPAAPKKEKKPRKPRA,8960
7,RRRFRNAKYFVHFIQLVRLLNICLQFEISNAEIEEVRVGFIAWVRRYEELYYQ,42800
8,GAGGAAGGAGAGAGTAATGGNAAGGKASATKPAAGAKSSPAAAAAAAGTRLTG,7150
9,KRHAKRRRDKRKQKEKKNSKRDESSSASDSDRRSQSSSRRSRSSSAGSKRSTR,17400
10,PIEYNTWLIFRQFVDIILLNDFVAYCMFAFSHFRVPNNLSITMHLLRWICGLA,42000
11,RSESGSPARRKKKRSSRDSEDSAGESSDSDAGARRKSRKGKDSRRDRKSKKDK,37600
12,AAFFFALLWVVFRSSWPSPLFFFLFFFVGLVLLAFLAFGFPFARFLLPLGVFF,26000
13,GGAARVDREEMPGVTLCLRHLSACVLGVFLVESSKKVLVVVRTEPITLSKSFG,45200
14,MYVGGVFSVSLFESVCYFVIFFSSLDLLLLLLLLFFSFLFFSFLFFFFSLVPS,44800
15,NNNSRSTEDSEDDLAIVGHGTGVERLGGLDALILRQRLLALLIRVAEALPEDF,15200
16,KGGSSPEEASAQSGGARSKEAKETGSSPTGGEVGKSGGKSNKSESSEEKSKDG,19900
17,GEEGKAEEAAGEEGKAEAEAGAESEKSAEGEGEASAEEGASGEEAAGEKAAGE,26800
18,SCLAVITWDVLNFLIVDCHIIFYRKFNWRVLVFIVARLSPYCFFLSLSISLTS,60900
19,MHKHFVVTLIMFFYFFFLFLLRGRCWNCTPLPTLIPSTASGVLLIVFLSYVVH,26400
20,TPLRISLFLVRVRCRHPSYSKWLPVEIKRCGVLLMSRLSLSLYRIFLNHITLN,59900
21,MGCILIFSFFSFPTSIKKFLLLSFPFLSFPFPSLLFYLGFFSFLLYILQKFLV,58100

row,Sequence,transcriptional activation domain activity
1,EVMKIMPVQKQTRAGQRTRFKAFVVIGDSDGHVGLGVKCAKEVATAIRGAIIL,55300
2,MSAVCMFLRNRALFIHIFSVALTLFHVGAFQLLHCNCAYGFLVWGFLGCSLSL,78500
3,TFTDIPVVVCHVFKQKLAKLMSNLCTMFPNAGWLVYSITSIEFQKHGVTHRND,51100
4,MDELGKIAFGSIPPPQAEPNLIGDNFGIFVDDMFTAYEDPMAHWSFLFEDLFP,151000
5,AILKCIACHNGAMDSVRLLSVLTVPSGPALAHVHLCLLRYLKNRVISEQFGPS,21100
6,MTNRQRVGHKKSRHGCIRCKARRVKCDEQRPCSNCVRHRTPCSLSQEPLAAAL,45200
7,DVPEEKKAESEKVDSDQEKAESEAKKIDETPAKETADKPEEKSEDKAEDKAAE,26100
8,TLTLLLRERGYELFLLVHFIFVLYVNFLSCLSVRSPLCIVYYGAWPSMIVWGI,64600
9,VVLGWILGKECMTLYFDTFQIALLFVSVLLVNYLIQDGKSHWLEGVLLVCSYL,37400
10,KTVEEIWRISQGAVEGEEKGREREKAGLCVRACGASWHSQVLCAALVEVVGLS,41700
11,ASGAAAPSGTPSLFGAKPAGTTAAPATSTPAGGLFGAASSAAPAASATTPTTG,47400
12,IGFVDFPFSSCSFLLGYFCYSVFLCFPFLFLVFFGVIYMWSSRGFLVQSFTMI,70800
13,MVGLVGFWVLFLFFLCPFLFSCPLPLPPLRPSLYIFQISYGSFFFLLFFSIFF,62300
14,ILLSLFANHFPWDFRDALCLEFWVVAFRNLEMLEYFDGDLLLSEHGGTCTVSK,34800
15,RPQSKERGGRREDGAGTDEGDSSTHPSCSSHVGRQEGVFQTVQCKHYWVVKWE,49900
16,DREHRSKHRRHSSDSRSRSHSHRERRKDKSKHREKEKDKDRKKRKKEKERRRD,36500
17,MLLKVSEPFSLFVYISGSAITLFSFFKFLFSLFFLLLILFFFPLFFFFPIVIV,80000
18,PQSEKSFKSAKNAPEKRAEERPRRRKTCARQNMRTNTNAAHTAHATGAITRRI,30100
19,VLLYTGLLKFFNLGVLTATLVEVCKRPWRIRMANGRVDRMKYFNLVFGIVWEC,58700
20,TSRAPPSASPPTASHGAPTPPPPSPSSSPAPATPSSHPCPPTSSSSRPPSSPP,41800
21,MDEDEDENENENENSKPPPPLPALPPHPHPHPHPHPHPHPQPQQPQSSSTTNE,40800

row,Sequence,transcriptional activation domain activity
1,HESDDFWRENASKLNEKDYEQLKLVPLHMFAPDWPLNCLLLRILVRLLSTEDP,30700
2,ADRTSRRRDDRSRSRDRGSSRRDSDRHRHHSRRSSRAERTKKEESQGNGTVPD,17800
3,YGILTLQYLVGVIWVLDTLHTIFVTHMVYTYLVTNFGDYLALGHNIWSFNLHV,37100
4,EVDEAAVKMVKRARRERRAAEKEASGEAEHAAGVEKKPKRRSSRKKKEEGEGG,31400
5,RKSELIAKYGLLPRDLRKIDSSVLPHILVRHSAILISLLHLRVLIKADRVLVF,57200
6,STARICQMYHWTGNVAIWTHCAILMHPHTIVLWHIWRWDSSWSQASYYFIFWI,37000
7,DCDIAQQQRFGAMFDDLLKSRETYFLRCSLSTWEIEHDVWWPFYLRSLEWCYF,50000
8,LQQLLLRDYFKYFIKVFQDLSTYERKSYFVFRQMAYAIISIAQGRGCIEFQCH,43100
9,MAFGAVLGLFICDADKVVRADGSRIILMKHPSWKTEIVGLWQTLIAEPWIIML,51400
10,IKITKEHKWIIVFKIRYKLFKYLVILFKLTNGASLFSYFINSLLFYNLLNNFY,54600
11,GGAAGARKGAKRPKRAVGGAAAAAGGKKSADSDDEKPKEKSAPSGGGSKVGGI,36600
12,HKLVVQVLQSQLLILKILDLCVTFHWHSHRERYLGIGYPLNGSASSLSSNAPY,41400
13,MLPHCIVIIGILFSLLSDVYLYLESSLIHKVHLSSIPGTLLWHPAFFLCILCK,55800
14,PTQEVLRFCKRELMHKLWNLLMDDDFLHAYMHGIVVCCGDGVLRRLFPRIFTY,44400
15,MLNNSSSFFVVVPIIYTLIHYLSMLFLFGCLIHLFPYIPTCILQLLLFLLYLY,44500
16,RGDGAEDSNRKRRRRSRSPRRSPPDRARERSTTADDAKGTRHRDRSSHRHKDK,32600
17,LKIYLLNPLHMTRFADLLYQGAIMNRVIQPYESHLQYLLQWMCDYNLYGCGYI,75800
18,MFYGFGSLSYGKGVTEFFFFSFFFFVASFISCFLFNFFSSAQFCCLFFHFVLI,58300
19,KVRAKEIVILPSEEDDNYKPLDTSNATTSSSEPRVDVVQEGLFREALNENDGK,32500
20,MTIDVIHVTYFTFFFFIIVLIYAHLVIPYILDVELLTYFLNDAFKWNMLNMLF,50200
21,ISNHQVYADWWYAWCLTYFMGTHKDIFIVLKKSLKWLPIVGWGMQFFNFIFLA,48400

row,Sequence,transcriptional activation domain activity
1,LDDLKLQPIINRYRNCKGLSPSDLRLSLDQLKCLNHQFSVIILRILFKHCPLY,72900
2,IRRHFNRKYHQCLLVVIVLGVYLAIGLNWGRFYLVCWVLLHFCIVILGPLYFL,53400
3,RGSVESDLIILAMTCTLDILMHLPRSVFYRRQLDLFLWLLRVIPSVKTTNSLN,41400
4,PAEAPAAEPAAATEAPAETKDEKKEEKKEEKKEKKDEKKTEKSAKVGRRLSAR,45100
5,SGKQGGRKSGSPHGRRPAIQGARRKGKQSSRKPTGKQTKQSPGKSGARKAFGK,42400
6,MNPHFLLPSIVSFQFSCFFGCLVVYLSVFFSRFIFILTFPSIYFSSTVFFFVS,37100
7,NLMGSQARSNSQTPTASTIYEEAESQSSYLDDMFRTSQGGRPVTQNSISSIGQ,56100
8,SFPIEGLYCLIKSLLKLKNLSLHGKIWWGDLKMLLPLLSKLDFWGIGELLLFD,67000
9,GRRRRKGEESRGRKNAEERKGGRKEGPGAGRVEAEGRAEATRTEKGEEGGSGG,34800
10,MLFVCFFWLWGWWLVVVVFVFLFFSFFLLLSSEFTDPFAFFCLFFFVLLHFSF,44000
11,MILNGELERCRESLHIVSEYVHSILRLNVLCLRLLYRRMDPSREPVDLFEVAV,54500
12,QTWGVYKRTGGINMYIVSIWVNWFANSIIGILSWLYLWGTIETSFWFFFFLLL,75500
13,GAEGAGAPGGAPPQLKKPKKHHKKKHHKKHGHRGGKHKHGKKGKWGKKGKKGL,15100
14,MSWQRVYRGWVVNGPGFGFFGRYYWIIIIRLAVPRRLLTCSCWCFGWLLFFLI,65700
15,EAAHVNGLGIADLDVLLGLNGRSSDVDMTTTLPSLKPPLQNGEIKADSIDNLD,53300
16,AATTAEPERKKSSKDRKSPEIVSEAKKSKDSPGEVKRSSSKREKEKEKEKSSS,37300
17,IGTSSTGDLECCLFTLLLFSWFWGLQTFLSICYYYGSFVSQAFFFFFHFFFFW,53800
18,YTRQLALGCVTRLLWTYLFRCTESTVIAFKKLDGIIKTLFPPFRRTIYPSETP,61400
19,TRYCWGFINLWYSSLYLSGSIILNLAAFFLLPVHLFVSLMQTHLLQWELLLAF,59500
20,LNRAARRSTPASRTRREGAIGARVRRRERESERARARTKMGRRSCLRVSAAAT,61600
